Patent US20190241648A1 (STATEN BIOTECHNOLOGY B V, published 2019)

Molecular target: T1, human ApoC3 (huApoC3), native protein purified from human serum (human, UniProt P02656 21-99)
T1 construct: Athens Research and Technology; randomly biotinylated in some assays; also called Apolipoprotein C3
Test: ELISA, biotinylated huApoC3 captured on neutravidin, scFv periplasmic extract
Method: The antibody clones selected from the scFv phage display library constructed in Example 1 were analyzed by a ELISA assay with biotinylated ApoC3 captured by […] which was coated on plates. Neutravidin (Fisher Scientific LDAcat#: W9995L) diluted in PBS (pH 7.4) at a concentration of 2-5 μg/ml (100 μl/well) was incubated in Microtiter Immunoassay Maxisorp 96-well plates (NUNC cat#:1456537 or similar) at 4° C. overnight. The coated plates were washed three times with 250 μl/well PBS-T to remove the excess of the unbound neutravidin. After washing, 250 μl 1% (m/v) of casein solution prepared in PBS was added to each coated well for blocking, and the plates were incubated for 1 to 2 hours at room temperature on a plate shaker (TitraMax 1000, Heidolph or similar). After blocking, the plates were washed three times to remove the excess of the blocking solution with 250 μl/well PBS-T. Biotin groups were introduced at random sites of human native ApoC3 protein (Athens Research and Technology). […] The absorbance of the end-product is measured at 450 nm using a Microplate spectrophotometer.

T1 sequence (P02656 21-99): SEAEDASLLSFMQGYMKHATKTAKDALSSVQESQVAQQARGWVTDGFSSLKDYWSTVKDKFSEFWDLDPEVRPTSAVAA

Row | Binder | binding result
1 | 12G8 scFv (scFv, V domains shown, scFv (crude periplasmic extract) with C-terminal c-myc tag) VH: QLQLVESGGGLVQPGGSLRLSCAASGFTFDDYAMSWVRQAPGKGLEWVSAIRWNGDTYYAESMKGRFDMSRDNAKNTLYLQMNSLKSEDTAVYYCAKHRPGGALDTWGQGTLVTVSS VL: QAVLTQPSAVSVSLGQTARITCQGGNFGNFYASWYQQKPGQAPVLVIYKDSERPSGIPERFSGSSSGDTATLTISGAQAEDEADYYCQSGSSSDNVVFGGGTHLTVL | binds
2 | 12D7 scFv (scFv, V domains shown, scFv (crude periplasmic extract) with C-terminal c-myc tag) VH: ELQLVESGGDLVQPGGSLRLSCAASGFTFDDYAMSWVRQAPGKGLEWVSAITSNGKRTDYAESMKGRFTISRDNSKNTLYLEMNSLKSEDTAVYYCTKGPPHYIPIPSMTPRDSWGQGTQVTVSS VL: SSALTQPSAVSVSLGQTARITCQGGTLGRYYGSWYQQKPAQAPVLLIYGDNSRPSGIPERFSGSKSGDTATLTISGTQAEDEADYYCESFDFSGNAAVFGGGTHLTVL | binds
